Assay results reported in patent publication US20240383984A1 (Genentech, published 2024).

T1: cynomolgus E11 domain protein (cynomolgus monkey)
T1 construct: whole entry named; also called cyno E11
T1 chain: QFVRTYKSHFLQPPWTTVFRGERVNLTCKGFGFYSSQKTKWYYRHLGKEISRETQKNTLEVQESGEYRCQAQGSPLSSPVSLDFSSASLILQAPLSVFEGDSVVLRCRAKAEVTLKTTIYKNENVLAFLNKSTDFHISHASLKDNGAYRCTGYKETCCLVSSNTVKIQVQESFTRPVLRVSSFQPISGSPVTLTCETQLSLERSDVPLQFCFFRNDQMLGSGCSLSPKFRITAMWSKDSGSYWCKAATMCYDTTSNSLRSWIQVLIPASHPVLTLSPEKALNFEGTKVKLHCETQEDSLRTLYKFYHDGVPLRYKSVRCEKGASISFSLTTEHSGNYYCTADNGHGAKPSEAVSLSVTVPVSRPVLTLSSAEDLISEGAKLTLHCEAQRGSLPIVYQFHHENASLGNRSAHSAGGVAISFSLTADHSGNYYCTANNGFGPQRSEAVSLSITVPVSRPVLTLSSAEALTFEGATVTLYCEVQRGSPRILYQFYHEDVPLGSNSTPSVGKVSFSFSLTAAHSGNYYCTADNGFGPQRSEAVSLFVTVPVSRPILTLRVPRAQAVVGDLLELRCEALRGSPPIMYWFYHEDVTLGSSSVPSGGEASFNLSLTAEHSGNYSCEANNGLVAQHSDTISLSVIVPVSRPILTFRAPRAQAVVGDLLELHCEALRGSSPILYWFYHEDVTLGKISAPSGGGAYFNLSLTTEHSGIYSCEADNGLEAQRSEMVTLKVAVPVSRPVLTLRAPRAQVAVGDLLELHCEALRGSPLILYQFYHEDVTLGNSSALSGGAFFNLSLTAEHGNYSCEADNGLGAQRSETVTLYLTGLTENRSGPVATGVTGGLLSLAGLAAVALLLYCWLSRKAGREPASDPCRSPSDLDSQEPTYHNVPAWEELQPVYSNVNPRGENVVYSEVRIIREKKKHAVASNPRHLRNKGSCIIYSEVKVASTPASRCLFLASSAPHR

T2: human FcRH5 protein fragment (soluble) (human, UniProt Q96RD9 16-851)
T2 construct: whole entry named; also called soluble human FcRH5; Human FcRH5 (BIACORE analyte)
T2 sequence: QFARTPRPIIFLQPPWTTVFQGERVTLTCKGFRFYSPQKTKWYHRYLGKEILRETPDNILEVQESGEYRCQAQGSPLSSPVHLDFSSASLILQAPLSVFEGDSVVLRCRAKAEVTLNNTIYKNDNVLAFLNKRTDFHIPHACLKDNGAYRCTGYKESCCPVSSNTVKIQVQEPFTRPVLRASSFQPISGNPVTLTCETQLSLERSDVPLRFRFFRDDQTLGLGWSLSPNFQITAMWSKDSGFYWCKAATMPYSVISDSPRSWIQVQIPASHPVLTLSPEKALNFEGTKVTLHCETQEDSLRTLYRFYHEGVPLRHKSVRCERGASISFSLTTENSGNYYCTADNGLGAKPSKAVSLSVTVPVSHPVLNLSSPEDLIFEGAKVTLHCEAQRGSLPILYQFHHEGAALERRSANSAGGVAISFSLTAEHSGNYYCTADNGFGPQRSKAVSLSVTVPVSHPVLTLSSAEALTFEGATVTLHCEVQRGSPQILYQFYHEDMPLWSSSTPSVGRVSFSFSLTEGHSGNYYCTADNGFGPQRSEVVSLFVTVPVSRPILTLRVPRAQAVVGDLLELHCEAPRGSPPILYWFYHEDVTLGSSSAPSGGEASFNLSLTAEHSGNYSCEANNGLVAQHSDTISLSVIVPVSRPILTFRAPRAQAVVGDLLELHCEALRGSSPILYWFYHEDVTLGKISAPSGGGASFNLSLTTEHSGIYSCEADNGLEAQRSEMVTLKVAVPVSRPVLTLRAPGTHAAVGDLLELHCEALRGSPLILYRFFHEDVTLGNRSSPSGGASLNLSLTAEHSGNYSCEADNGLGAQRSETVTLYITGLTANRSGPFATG

T3: human FcRH2 (full-length, on SVT2 cells) (human, UniProt Q96LA5 20-508)
T3 construct: whole, on cells; also called SVT2-FcRH2
T3 sequence (looked up): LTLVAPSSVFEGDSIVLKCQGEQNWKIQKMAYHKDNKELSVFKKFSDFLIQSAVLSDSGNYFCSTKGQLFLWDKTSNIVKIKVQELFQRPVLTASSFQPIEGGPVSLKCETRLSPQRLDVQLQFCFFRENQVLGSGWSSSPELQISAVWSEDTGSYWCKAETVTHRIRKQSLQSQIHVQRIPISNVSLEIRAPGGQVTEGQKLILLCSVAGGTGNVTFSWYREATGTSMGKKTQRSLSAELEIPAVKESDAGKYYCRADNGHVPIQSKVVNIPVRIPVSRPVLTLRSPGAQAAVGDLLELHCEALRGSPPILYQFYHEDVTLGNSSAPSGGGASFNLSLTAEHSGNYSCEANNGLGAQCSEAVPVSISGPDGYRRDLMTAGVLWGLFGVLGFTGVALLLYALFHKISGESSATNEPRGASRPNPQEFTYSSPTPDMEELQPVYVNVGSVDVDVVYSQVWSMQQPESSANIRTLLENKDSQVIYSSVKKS


Assays:
[1] = target: T1, cynomolgus E11 domain protein; assay: SPR, IgG capture
Experimental: Briefly, test antibodies were captured on flow cells 2, 3 or 4 with flow cell 1 as a reference on a protein A Series S CM5 chip (GE Life Sciences, Piscataway, NJ). An FcRH5 protein fragment was used as analyte, with a flow rate of 30 μl/minute. Between injections the capture surface was regenerated by a 30 second injection of 10 mM glycine, pH 1.5 at a flow rate of 10 μl/minute. Interactions were assessed at 25° C. in 10 mM HEPES pH 7.4, 150 mM NaCl, 0.05% Tween 20 (HBSP). Reference data from the reference flow cell and from injection of buffer alone was subtracted prior to kinetic analysis. Kinetic information was calculated by fitting data to a 1:1 binding model. Reference subtraction and data fitting were performed using BIAevaluation software (GE Life Sciences, Piscataway, NJ).

[2] = target: T2, human FcRH5 protein fragment (soluble); assay: SPR (BIACORE), Human FcRH5, 1:1 binding model
[3] = target: T3, human FcRH2 (full-length, on SVT2 cells); assay: flow cytometry on SVT2-FcRH2 cells, PE-labelled secondary
Experimental: Human FcRH5, cyno FcRH5, human FcRH1, FcRH2, FcRH3, and FcRH4 transfected mouse SVT2 cells were used to test binding and cross-reactivity of FcRH5 TDBs. The method was carried out as follows. Cultured SVT2 cells were lifted using non-enzyme cell dissociation buffer (Sigma, #C5914). 1×10⁵ cells were suspended in 100 μL and incubated with FcRH5 TDBs at 3 μg/ml. […] Cells were washed twice with FACS buffer before flow cytometry analysis was carried out on a FACSCalibur.

KD difference between human and cynomolgus E11 domains [1] | Kd [2] | koff [2] | kon [2] | binding result [3] | Binder
~20 fold |  |  |  |  | 15G8 (antibody, mouse IgG2a, V domains shown, mouse mAb, Campaign C; recombinant murine IgG2a for SPR; also called mAb 15G8) VH: EVQLQQSGPELVKPGASVKMSCKASGYTFTNYVIHWMKQKPGQGLEWIGYISPYNDYTKYNEKFEGKATLTSDKSSNTAYMELSSLTSEDSAVYYCARRDYYGSSDYWGQGTTLTVSS VL: QIVLTQSPAIMSASPGEKVTMTCSASSSVDYMHWYQQKSGTSPKKWIYDTSKLASGVPARFSGSGSGTSYSLTIGSMEAEDAATYYCQQWSSNPPTFGGGTKLEIK
 | 2.08 nM | 0.000746 s⁻¹ | 359000 M⁻¹ s⁻¹ | no binding | 1G7.v85/38E4.v1 TDB (bispecific antibody, V domains shown, knob-into-hole TDB; also called 1G7.v85 TDB; 1G7.v85 (TDB format)) VH 1: EVQLVESGPGLVKPSETLSLTCTVSGFSLTRFGVHWVRQPPGKGLEWLGVIWRGGSTDYNAAFVSRLTISKDNSKNQVSLKLSSVTAADTAVYYCSNHYYGSSDYALDNWGQGTLVTVSS VL 1: DIQMTQSPSSLSASVGDRVTITCKASQDVRNLVVWFQQKPGKAPKLLIYSGSYRYSGVPSRFSGSGSGTDFTLTISSLQPEDFATYYCQQHYSPPYTFGQGTKVEIK VH 2: EVQLVQSGAEVKKPGASVKVSCKASGFTFTSYYIHWVRQAPGQGLEWIGWIYPENDNTKYNEKFKDRVTITADTSTSTAYLELSSLRSEDTAVYYCARDGYSRYYFDYWGQGTLVTVSS VL 2: DIVMTQSPDSLAVSLGERATINCKSSQSLLNSRTRKNYLAWYQQKPGQSPKLLIYWTSTRKSGVPDRFSGSGSGTDFTLTISSLQAEDVAVYYCKQSFILRTFGQGTKVEIK
